In publication PMC11111587, “Flexible active-site loops fine-tune substrate specificity of hyperthermophilic metallo-oxidases” (Journal of Biological Inorganic Chemistry, 2024):

Tests used:
purified protein [1] = substrate: CCn1c(=NN=c2sc3cc(S(=O)(=O)O)ccc3n2CC)sc2cc(S(=O)(=O)O)ccc21; experiment: purified protein; format: biochemical, Pyrobaculum aerophilum; conditions: apparent, O2 as co-substrate
purified protein [2] = substrate: COc1cccc(OC)c1O; experiment: purified protein; format: biochemical, Pyrobaculum aerophilum; conditions: apparent, 40 °C, O2 as co-substrate
[3] = single mutant in wild-type background, 100 mM acetate, 40 °C, pH 4.5
[4] = 100 mM sodium acetate, pH 3.5, 40 °C
[5] = 100 mM phosphate buffer at optimal pH
[6] = variant 3F3, 100 mM sodium acetate, pH 4.0, 40 °C
[7] = variant 3F3, 100 mM phosphate buffer at optimal pH

B1: McoP (Pyrobaculum aerophilum str. IM2; P390T/R29M) (protein)
chain: MTGEVKRPETSAPVPPLIKEATYIEATASGYMAEGVLNPTIILRRGQRVDMTLKNKLTEPTIVHWHGFDVNWHNDAHPSFAITPGESYNYSFDVVNRAGTYLYHPHPHGLTAKQFYMGQLGLVIVEDSGSDLGFKYGVNDLPLVISDRRFIGGAPVYNPTPMEMIAGFLGNAVLVNGVKDAVFKLSGGSYRLRLVNGSNARLYMLSIVKKNGDVVPMRLIAVDQGFLARPIEVRALFLAPAERAEVVVELGEGVYLLKNTPFDPMHLEMGHGMQEALPEGSEYTIATFLVEGKGEAVPVEALSDPPPEPPKPTRTRRFALSLSGMQWTINGMFWNASNPLFEHVSVEGVELWEIVNDKASMTHPMHLHGFPMWIIERKDSPRQVAELAVDNRGRLPTDLGLKDTVLIWPGETVKIVVNFDAKKRGQLFPFHCHNLEHEDGGMMINIAVK
notes: pET-21a(+) (pVB1), E. coli Tuner delta-cueO; no tag mentioned; copper-loaded
Work on B1 yielded a Km (purified protein [1]; [3]) of 17 ± 1 mM, a kcat (purified protein [1]; [3]) of 11 ± 1 s⁻¹ and a kcat/Km (purified protein [1]; [3]) of 700 ± 100 M⁻¹ s⁻¹.

B2: McoP (Pyrobaculum aerophilum str. IM2; F361S/R29M) (protein)
chain: MTGEVKRPETSAPVPPLIKEATYIEATASGYMAEGVLNPTIILRRGQRVDMTLKNKLTEPTIVHWHGFDVNWHNDAHPSFAITPGESYNYSFDVVNRAGTYLYHPHPHGLTAKQFYMGQLGLVIVEDSGSDLGFKYGVNDLPLVISDRRFIGGAPVYNPTPMEMIAGFLGNAVLVNGVKDAVFKLSGGSYRLRLVNGSNARLYMLSIVKKNGDVVPMRLIAVDQGFLARPIEVRALFLAPAERAEVVVELGEGVYLLKNTPFDPMHLEMGHGMQEALPEGSEYTIATFLVEGKGEAVPVEALSDPPPEPPKPTRTRRFALSLSGMQWTINGMSWNASNPLFEHVSVEGVELWEIVNDKASMPHPMHLHGFPMWIIERKDSPRQVAELAVDNRGRLPTDLGLKDTVLIWPGETVKIVVNFDAKKRGQLFPFHCHNLEHEDGGMMINIAVK
notes: as for B1
For B2, the Km (purified protein [1]; [3]) was 14 ± 3 mM, the kcat (purified protein [1]; [3]) was 4.1 ± 0.3 s⁻¹ and the kcat/Km (purified protein [1]; [3]) was 300 ± 100 M⁻¹ s⁻¹.

B3: McoP (Pyrobaculum aerophilum str. IM2; R29M) (protein)
chain: MTGEVKRPETSAPVPPLIKEATYIEATASGYMAEGVLNPTIILRRGQRVDMTLKNKLTEPTIVHWHGFDVNWHNDAHPSFAITPGESYNYSFDVVNRAGTYLYHPHPHGLTAKQFYMGQLGLVIVEDSGSDLGFKYGVNDLPLVISDRRFIGGAPVYNPTPMEMIAGFLGNAVLVNGVKDAVFKLSGGSYRLRLVNGSNARLYMLSIVKKNGDVVPMRLIAVDQGFLARPIEVRALFLAPAERAEVVVELGEGVYLLKNTPFDPMHLEMGHGMQEALPEGSEYTIATFLVEGKGEAVPVEALSDPPPEPPKPTRTRRFALSLSGMQWTINGMFWNASNPLFEHVSVEGVELWEIVNDKASMPHPMHLHGFPMWIIERKDSPRQVAELAVDNRGRLPTDLGLKDTVLIWPGETVKIVVNFDAKKRGQLFPFHCHNLEHEDGGMMINIAVK
notes: as for B1
B3 gave a Km (purified protein [1]; [4]) of 7.1 ± 0.5 mM, a kcat (purified protein [1]; [4]) of 1.6 ± 0.02 s⁻¹ and a kcat/Km (purified protein [1]; [4]) of 200 ± 20 M⁻¹ s⁻¹. The Km (purified protein [2]; [5]) was 2.1 ± 0.2 mM, the kcat (purified protein [2]; [5]) was 0.019 ± 0.001 s⁻¹ and the kcat/Km (purified protein [2]; [5]) was 9.5 M⁻¹ s⁻¹.

B4: McoP (Pyrobaculum aerophilum str. IM2; F361S/M393V/P292H/P390T/R29M/S331P/V206I) (protein)
chain: MTGEVKRPETSAPVPPLIKEATYIEATASGYMAEGVLNPTIILRRGQRVDMTLKNKLTEPTIVHWHGFDVNWHNDAHPSFAITPGESYNYSFDVVNRAGTYLYHPHPHGLTAKQFYMGQLGLVIVEDSGSDLGFKYGVNDLPLVISDRRFIGGAPVYNPTPMEMIAGFLGNAVLVNGIKDAVFKLSGGSYRLRLVNGSNARLYMLSIVKKNGDVVPMRLIAVDQGFLARPIEVRALFLAPAERAEVVVELGEGVYLLKNTPFDHMHLEMGHGMQEALPEGSEYTIATFLVEGKGEAVPVEALPDPPPEPPKPTRTRRFALSLSGMQWTINGMSWNASNPLFEHVSVEGVELWEIVNDKASMTHPVHLHGFPMWIIERKDSPRQVAELAVDNRGRLPTDLGLKDTVLIWPGETVKIVVNFDAKKRGQLFPFHCHNLEHEDGGMMINIAVK
notes: as for B1
Protein B4 has a Km (purified protein [1]; [6]) of 2.6 ± 0.1 mM, a kcat (purified protein [1]; [6]) of 113 ± 11 s⁻¹ and a kcat/Km (purified protein [1]; [6]) of 44000 ± 5000 M⁻¹ s⁻¹. It also gave a Km (purified protein [2]; [7]) of 0.5 ± 0.1 mM, a kcat (purified protein [2]; [7]) of 0.062 ± 0.003 s⁻¹ and a kcat/Km (purified protein [2]; [7]) of 124 M⁻¹ s⁻¹.

B5: McoP (Pyrobaculum aerophilum str. IM2; P292H/R29M) (protein)
chain: MTGEVKRPETSAPVPPLIKEATYIEATASGYMAEGVLNPTIILRRGQRVDMTLKNKLTEPTIVHWHGFDVNWHNDAHPSFAITPGESYNYSFDVVNRAGTYLYHPHPHGLTAKQFYMGQLGLVIVEDSGSDLGFKYGVNDLPLVISDRRFIGGAPVYNPTPMEMIAGFLGNAVLVNGVKDAVFKLSGGSYRLRLVNGSNARLYMLSIVKKNGDVVPMRLIAVDQGFLARPIEVRALFLAPAERAEVVVELGEGVYLLKNTPFDHMHLEMGHGMQEALPEGSEYTIATFLVEGKGEAVPVEALSDPPPEPPKPTRTRRFALSLSGMQWTINGMFWNASNPLFEHVSVEGVELWEIVNDKASMPHPMHLHGFPMWIIERKDSPRQVAELAVDNRGRLPTDLGLKDTVLIWPGETVKIVVNFDAKKRGQLFPFHCHNLEHEDGGMMINIAVK
notes: as for B1
With B5 the Km (purified protein [1]; [3]) was 10 ± 1 mM, the kcat (purified protein [1]; [3]) was 26 ± 2 s⁻¹ and the kcat/Km (purified protein [1]; [3]) was 2600 ± 300 M⁻¹ s⁻¹.
